The results in this text go back to patent US20240279318A1.

Changes are numbered by the printed parent chain.

Test [1] addresses group 1: ZNF566 and ARNTL homologous peptide/HLA-A*02:01 complexes (mixed). Briefly: SPR (BIAcore T200), crude scFv captured, mixed complexes flowed over. (In SPR one partner is held on a chip, and binding of the other changes the refractive index at the surface.)
The target of test [2] is group 2: CDC14A, PTP4A1, BRCA2 and RCL1 homologous peptide/HLA-A*02:01 complexes (mixed). Described as above.
In test [3] the target is group 3: OR1I1, OR51B6, OR6C1, ATG9A, RP1 and NR2E1 homologous peptide/HLA-A*02:01 complexes (mixed). The test is described as above.
Test [4] addresses AFP158 homologous peptides/HLA-A*02:01 complexes. Briefly: SPR, crude scFv captured, complexes as analyte.
Test [5] concerns the target other peptide-loaded T2 cells. Briefly: cell-based or functional assay.

B1: AS170036 VL1VH1 (scFv)
scFv: QSALTQPRSVSGSPGQSVTISCAGTSSDVGSENYVSWYQQHPGKAPKLMIYQVNKRASGVPDRFSGSKSGNTASLTISGLQAEDEADYYCASYRSSDHNIVFGGGTKLTVLGGGGSGGGGSGGGGSEVQLVESGGGLVQPGGSLRLSCAASGFTFSSYAMSWVRQAPGKGLEWVSTINSGTGSPYYADSVKGRFTISRDNSKNTLYLQMNSLRAEDTAVYYCAKNFFDGSWFLGPPAMDYWGQGTLVTVSSHHHHHH
Take B1: the figures for the SPR binding level in test [1], in test [2] and in test [3] were 0.8 RU, 0.4 RU and 0.2 RU, respectively.

B2: 34-AS170036 VL1VH1-98I108A (scFv)
scFv: B1 scFv with H98I, G234A
As to B2, the SPR binding level in test [1] stood at 10.2 RU; in test [2], 11.2 RU; in test [3] it was 3.6 RU.

B3: 27-AS170036 VL1VH1-57K108S (scFv)
scFv: B1 scFv with S183K, G234S
For B3, the SPR binding level in test [1] was 6.1 RU; in test [2] it was 3.3 RU; in test [3], 1.3 RU.

B4: 42-AS170036 VL1VH1-56Y98F108S (scFv)
scFv: B1 scFv with H98F, G182Y, G234S
Consider B4, for which the SPR binding level in test [1] amounted to 6.3 RU; in test [2], 39.3 RU; in test [3] it was 4.4 RU.

B5: 48-AS170036 VL1VH1-56Y98Q108S (scFv)
scFv: B1 scFv with H98Q, G182Y, G234S
B5: the SPR binding level in test [1] was 9.3 RU; in test [2], 56.6 RU; in test [3], 6.1 RU.

B6: AS170036 VL1VH1-VLH98Q (scFv)
scFv: B1 scFv with H98Q
On to B6, for which the SPR response in test [4] was < 3.5 RU.

B7: AS170036 VL1VH1-VHG108A (scFv)
scFv: B1 scFv with G234A
Turning to B7, in test [4], the SPR response is < 3.5 RU.

B8: AS170036 VL1VH1-VHG56N (scFv)
scFv: B1 scFv with G182N
Regarding B8, in test [4], the SPR response was < 3.5 RU.

B9: 49-AS170036 VL1VH1-56N98F108A (scFv)
scFv: B1 scFv with H98F, G182N, G234A
As to B9, the SPR binding level in test [1] worked out at 15.3 RU; in test [2] it was 21.1 RU; in test [3] it was 6.5 RU.

B10: 10-AS170036 VL1VH1-57K98F (scFv)
scFv: B1 scFv with H98F, S183K
Turning to B10, the SPR binding level in test [1] stood at 6.8 RU; in test [2] it was 4 RU; in test [3], 1 RU.

B11: 40-AS170036 VL1VH1-56Y98F108A (scFv)
scFv: B1 scFv with H98F, G182Y, G234A
In the case of B11, the figures for the SPR binding level in test [1], in test [2] and in test [3] were 13.8 RU, 79.2 RU and 9.5 RU, respectively.

B12: AS170036 VL1VH1-VHS57M (scFv)
scFv: B1 scFv with S183M
With B12, the SPR response in test [4] is < 3.5 RU.

B13: 03-AS170036 VL1VH1-56Y98Q (scFv)
scFv: B1 scFv with H98Q, G182Y
Consider B13, for which the SPR binding level in test [1] was 4 RU; in test [2] it was 27.2 RU; in test [3] it was 2.4 RU.

B14: AS170036 VL1VH1-VLH98F (scFv)
scFv: B1 scFv with H98F
In the case of B14, the SPR response in test [4] is < 3.5 RU.

B15: 19-AS170036 VL1VH1-56N108A (scFv)
scFv: B1 scFv with G182N, G234A
Turning to B15, the SPR binding level amounted to 5 RU in test [1], 7.5 RU in test [2] and 2.6 RU in test [3].

B16: 45-AS170036 VL1VH1-56Y98I108S (scFv)
scFv: B1 scFv with H98I, G182Y, G234S
Regarding B16, the values for the SPR binding level in test [1], in test [2] and in test [3] were 9 RU, 64.7 RU and 6 RU, respectively.

B17: 75-AS170036 VL1VH1-57K98Q108S (scFv)
scFv: B1 scFv with H98Q, S183K, G234S
For B17, the values for the SPR binding level in test [1], in test [2] and in test [3] were 22.6 RU, 14.3 RU and 3.9 RU, respectively.

B18: 82-AS170036 VL1VH1-57M98Q108A (scFv)
scFv: B1 scFv with H98Q, S183M, G234A
Turning to B18, the SPR binding level worked out at 28.2 RU in test [1], 16.6 RU in test [2] and 4.7 RU in test [3].

B19: AS170036 VL1VH1-VLH98I (scFv)
scFv: B1 scFv with H98I
For the molecule B19, the SPR response in test [4] was < 3.5 RU.

B20: 22-AS170036 VL1VH1-57H108A (scFv)
scFv: B1 scFv with S183H, G234A
B20: the SPR binding level in test [1] is 26.6 RU; in test [2] it was 10 RU; in test [3] it was 5.7 RU.

B21: 16-AS170036 VL1VH1-56Y108A (scFv)
scFv: B1 scFv with G182Y, G234A
As to B21, the SPR binding level in test [1] came to 4.5 RU; in test [2], 32.6 RU; in test [3], 3.2 RU.

B22: AS170036 VL1VH1-VHG56Y (scFv)
scFv: B1 scFv with G182Y
As to B22, the SPR response in test [4] is < 3.5 RU.

B23: AS170036 VL1VH1-VHS57H (scFv)
scFv: B1 scFv with S183H
For B23, in test [4], the SPR response is < 3.5 RU.

B24: 15-AS170036 VL1VH1-57M98Q (scFv)
scFv: B1 scFv with H98Q, S183M
In the case of B24, the SPR binding level in test [1] worked out at 5.1 RU; in test [2] it was 2.8 RU; in test [3], 1.2 RU.

B25: 67-AS170036 VL1VH1-57K98F108A (scFv)
scFv: B1 scFv with H98F, S183K, G234A
B25: the SPR binding level is 35.8 RU in test [1], 22.3 RU in test [2] and 6.3 RU in test [3].

B26: AS170036 VL1VH1-VHS57K (scFv)
scFv: B1 scFv with S183K
For B26, the SPR response in test [4] is < 3.5 RU.

B27: 25-AS170036 VL1VH1-57K108A (scFv)
scFv: B1 scFv with S183K, G234A
In the case of B27, the SPR binding level in test [1] came out at 10.9 RU; in test [2], 6.3 RU; in test [3], 2 RU.

B28: AS170036 VL1VH1-VHG108S (scFv)
scFv: B1 scFv with G234S
As for B28, the SPR response in test [4] was < 3.5 RU.

B29: 43-AS170036 VL1VH1-56Y98I108A (scFv)
scFv: B1 scFv with H98I, G182Y, G234A
Regarding B29, the results for the SPR binding level in test [1], in test [2] and in test [3] were 25.7 RU, 148 RU and 17.3 RU, respectively.

B30: 70-AS170036 VL1VH1-57K98I108A (scFv)
scFv: B1 scFv with H98I, S183K, G234A
B30: the SPR binding level was determined as 33.7 RU in test [1], 21.9 RU in test [2] and 5.8 RU in test [3].

B31: 05-AS170036 VL1VH1-56N98I (scFv)
scFv: B1 scFv with H98I, G182N
Consider B31, for which the SPR binding level is 4.4 RU in test [1], 7 RU in test [2] and 2 RU in test [3].

B32: AS170036 VL1VH1-VHG108D (scFv)
scFv: B1 scFv with G234D
Consider B32, for which, in test [4], the SPR response was < 3.5 RU.

B33: AS167821A-AS167821A-TCE-KIH (bispecific antibody, human IgG1, kappa, L234A L235A)
heavy: EVQLVESGGGLVQPGRSLRLSCAASGFTFDDYAMHWVRQAPGKGLEWVSGISWNSGSIGYADSVKGRFTISRDNAKNSLYLQMNSLRAEDTALYYCAKDSRGYGDYRLGGAYWGQGTLVTVSSASTKGPSVFPLAPSSKSTSGGTAALGCLVKDYFPEPVTVSWNSGALTSGVHTFPAVLQSSGLYSLSSVVTVPSSSLGTQTYICNVNHKPSDTKVDKKVEPKSCDKTHTCPPCPAPEAAGGPSVFLFPPKPKDTLMISRTPEVTCVVVDVSHEDPEVKFNWYVDGVEVHNAKTKPREEQYNSTYRVVSVLTVLHQDWLNGKEYKCKVSNKALPAPIEKTISKAKGQPREPQVYTLPPSREEMTKNQVSLWCLVKGFYPSDIAVEWESNGQPENNYKTTPPVLDSDGSFFLYSKLTVDKSRWQQGNVFSCSVMHEALHNHYTQKSLSLSPGK
light: not shown
chain: QVRLVESGGGSVQAGGSLRLSCAASGRTYSTYAMGWFRQAPGKEREGVATIYIGSGRTYYVDSVKGRFTISQDNAKNTLYLQMNNLKPEDTAMYYCTADVDPYESSWSRGLGYWGQGTQVTVSSGGGGSGGGGSGGGGSGGGGSGGGGSQVRLVESGGGSVQAGGSLRLSCAASGRTYSTYAMGWFRQAPGKEREGVATIYIGSGRTYYVDSVKGRFTISQDNAKNTLYLQMNNLKPEDTAMYYCTADVDPYESSWSRGLGYWGQGTQVTVSSEPKSSDKTHTCPPCPAPEAAGGPSVFLFPPKPKDTLMISRTPEVTCVVVDVSHEDPEVKFNWYVDGVEVHNAKTKPREEQYNSTYRVVSVLTVLHQDWLNGKEYKCKVSNKALPAPIEKTISKAKGQPREPQVYTLPPSREEMTKNQVSLSCAVKGFYPSDIAVEWESNGQPENNYKTTPPVLDSDGSFFLVSKLTVDKSRWQQGNVFSCSVMHEALHNRYTQKSLSLSPGK
On to B33, for which the T cell redirected cell killing (LDH), 1 nM BsAb in test [5] was < 20%.
